Results published in publication PMC2213607 (The Journal of Cell Biology, 2008).
Where a chain is given by its changes, count along the chain named. Names and notes keep the numbering of the source. Values belong to the binder of their own block, whether it stands above or below them.

Experiments:
[1] = target: His-tagged (6×) human Rab6A (human, UniProt P20340 1-208); experiment: pull-down
[2] = target: the molecule itself

Chain of His-tagged (6×) human Rab6A (P20340 whole entry): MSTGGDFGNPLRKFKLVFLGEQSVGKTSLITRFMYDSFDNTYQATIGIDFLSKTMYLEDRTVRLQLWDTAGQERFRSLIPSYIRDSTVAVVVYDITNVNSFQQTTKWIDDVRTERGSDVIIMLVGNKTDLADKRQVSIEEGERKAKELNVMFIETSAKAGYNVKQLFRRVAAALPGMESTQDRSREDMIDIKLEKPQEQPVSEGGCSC

- binding result [1]: binds
B1: GCC185 C-110 (fragment of the 110 C-terminal-most amino acids of GCC185) (domain or fragment, UniProt Q8IWJ2 1575-1684, looked up)
chain: LNGLLRETEATNAILMEQIKLLKSEIRRLERNQEREKSAANLEYLKNVLLQFIFLKPGSERERLLPVINTMLQLSPEEKGKLAAVAQGEEENASRSSGWASYLHSWSGLR

B2: GCC185 C-110 I1588A/L1595A (domain or fragment, UniProt Q8IWJ2 1575-1684, looked up)
chain: B1 chain with I14A, L21A
- stoichiometry N [2]: 2
